Here are results for 22 sequences from the DeepSol protein solubility set.

The data set can be described thus: soluble on expression in E. coli; label from the status in PepcDB or PDB records.
On to “MAAEGVRVEGDWSRLVETIRNLNLSKSELRMLNAQIAQIVAEGSKERFETEKSPEGERWEPLSPATLEARARRRTRRKDGTSGYRTKRGKLSKRAERIIASGRPLKDTGRLMRSIATKATAEAAVIGTNLVQAAIQQLGGKAGRGKKVEIPARPYLGVSSSEEADIMELINEFIRERIQ”, for which the “soluble on expression in E. coli” value is given as “not soluble”.

Turning to “MARLTVHTLETAPEAAKARVEAVLQNNGFIPNLIGVLSNAPEALAFYQEVGKLNAANSLTAGEVEVIQIIAARTNQCGFCVAGHTKLATLKKLLSEQSVKAARALAAGEFDDAKLGALAAFTQAVMAKKGAVSDEELKAFFDAGYNQQQAVEVVMGVALATLCNYVNNLGQTEINP”, the “soluble on expression in E. coli” value was “not soluble”.

On to “MSLRRTCVIGAGPSGLAASRVLASRGIPFDCYEAGSGIGGLWRYGNDNGMSGVYASLHANISKESMSFSSLPMPDSYPVFPHHTQVLAYLESYAETFGLHGHIGLRTEVTSVRPVEGGGWEVTRRSRGGAEAETDRYTEVVVANGHHWDPRLPDPAVPGAGVFEGSAVHAHAYRSPEPYAGQRVLVVGMGNSGCEIAAEISRSAARTFLSARAVAHVFPKMLLGRPADHWAVSRAAVLPRFLKDPGMALLLRLARGAPALYGLPEPVRRPLAAHPSTSDELLVQLARGAVTAKPGIRSFGRDSVSFTDGSRETVDAVVYATGYSLSFPFLAPAVFAAPDGRTELYLRTVPPRLPGLFFMGLAQPAGAAFPLLEPQAEWIADLIEGEVLLPTPAEMTRSIARARERHDKVYAPSYRHGIEIDICAYRRALRRELREGHHHHHH”, for which the “soluble on expression in E. coli” value is “not soluble”.

As for “MGSDKIHHHHHHMNNINDSSAIHITPETFVKQIRSLGRYNFPEPALVDPDGIGIVGIGGNLAPETLISAYAQGLFPWFNDDEPIAWWCPEPRCVMQPTDYQPSKSLRKQANNARWQLTLNQAFNEVIHACSLPRSNGLPEGEHTWIHDDMIEAYNELHAQGFAHSVEVWDDQGQLVGGLYGLKIGSIYFGESMFHIASNASKLAFWGLMRLCTQSNVTLVDCQLPNEHLMSLGAITLSRTEFLTQLDTLISNGSDAWHKNSHRPLAVSLLGNLQPWQLNP”, the “soluble on expression in E. coli” value is reported as “not soluble”.

For the sequence “MGSDKIHHHHHHMRWEEVEPVVRELLDFQISSPEEFRTFINKVTDFFDRVREEHGWLYIKMTVNADKEEFAKAYEEFQKEIVAKLKPYEQKIKEKIVENEHFAPRGYEHMIKVIKNDVELFREENVPLQVKESILSRNYGTIVGNIEVDFEGEKKTLQQLSVYLRDPDRSTRELAWRKRYEGIWEVRDKLNKLFDELKEIRHQQALNAGFSNYRDYMHRLKSRFEYTPEDLYRFHEAVEKEVVPYLVERTKIRQRKLGIESVRPWDTAVDVDGKVLKPFSSVEEFMEKTERALKRLNPTFAERFRLMREKNLLDLENRKGKAPGGYNHTLPKTGAPFIFMNAVGQPGDVRTIFHELGHSMHSFETLSLPVFYRPHRMEVAELASMSLELISMEYWDEFYTDPEDLKKAKIEELEGALYFLPWCMIVDAFQHWIYTNPDHTPKERDEYFAYLMDRFNPGVDWSDLDEEKKTRWLFQLHIFEVPFYYIEYGIAQIGALAIYRNYIEDPEKTLKDYQRFLSVGCSMPVDEVYKTAGIELKFSRDYIREIVDFVAKQIEEIEK”, the “soluble on expression in E. coli” value is “not soluble”.

As to “MYKPTERNAQNSLAMMNYAYDTSLQETMILTEAFHTDRVICDNGSLYKFIWVQEGKLTLIVDHVEIEMEQDEIISVSNLHRTEFKNVSGRYLALLFNENFYGIYKHEKEVSCSGVLFNGTSGIVHLRLPIADSELLHEVVDRMVTEYILRDNLQGEMLRLLLKRFIILCTRLARKQLSGFPVNEKGFDIIQRYYVLVDNHFKEKKQVQAYAALLHRSPKTLSNLFAAYGMPSPLKIIQERVVTEAKRLLLHTSHSIKEISVILGFESVGTFSRFFKNMTGENTSAYRKRLQ”, the “soluble on expression in E. coli” value is on record as “not soluble”.

As to “MYVCHFENCGKAFKKHNQLKVHQFSHTQQLPYECPHEGCDKRFSLPSRLKRHEKVHAGYPCKKDDSCSFVGKTWTLYLKHVAECHQD”, the “soluble on expression in E. coli” value is “soluble”.

Consider “MSLIHYIPMFGKIKLTNLEIKMGNELISIKEEGDYFLYLRRDVERVIVGDYLQILPAPARGYGVKLMMVKLKRPIALAPGKSIEGFIQVPVEVSVKVGDSEIDRFGIGREKYALYGTLENGVIVRYCTGYIGNEPNGLGNLKVKIVNKGEDWGFIDRIVFPMLDLMYYSKDKAFYPLIRVEIQEDINVINTGEAPLPNLVSTGEEKSLRFRMRWEGHHHHHH”, for which the “soluble on expression in E. coli” value is “soluble”.

Regarding “MGSDKIHHHHHHMLAKRIIACLDVKDGRVVKGTNFENLRDSGDPVELGKFYSEIGIDELVFLDITASVEKRKTMLELVEKVAEQIDIPFTVGGGIHDFETASELILRGADKVSINTAAVENPSLITQIAQTFGSQAVVVAIDAKRVDGEFMVFTYSGKKNTGILLRDWVVEVEKRGAGEILLTSIDRDGTKSGYDTEMIRFVRPLTTLPIIASGGAGKMEHFLEAFLAGADAALAASVFHFREIDVRELKEYLKKHGVNVRLEGL”, the “soluble on expression in E. coli” value was “soluble”.

Turning to “MYKVSHGLSMVHEDEMGVNAPMDHQRVISKLNVGLGKLFYYDKAISLEPLPETMLDEGRTSRYDGPPTPDLILYDKARDHIPVIIEVCHTRGLKGDLQKVVSLIEDFPYDILEGFVYNYRTEHWFRYRKGDNGIATETSFSEILQLDLNQFL”, the “soluble on expression in E. coli” value is reported as “not soluble”.

Turning to “QTPPRLVAIGGLSGSGKTTIAEALAAHVGAPPGARIVESDRIRKAMHGVPAETRLPDNAYRPDVSDRVYNEMTWRAGLILSEGGSVVADAVFDRPADRERIEKAARDRGIPFFGFWLEADPLVLWQRVSERKGGPSDATVDILSRQLQRKAG”, the “soluble on expression in E. coli” value is reported as “not soluble”.

In the case of “MTNQNVLLNISGVKFVLRIPNAVNLSLINREYEAFNNAQAYRAGLNVETPVLDAKSGVKLTRYLENSNTLSQIQLNEQSCLSQVVNNLYRLHNSEFVFRNVFSVFDEFRQYFSLLENKSAFYQADSRMDKLSAVFWQFEEINKEVILRPCHNDLVPENMLLQDDRLFFIDWEYSGLNDPLFDIATIIEEAHLSKEAADFLLETYCNQTNKYHKTEFQIAHKRLKIHRFCQNVLWFLWTKVKEEHGENFGDYALKRLDAAFKLLEELPLEHHHHHH”, the “soluble on expression in E. coli” value is “not soluble”.

For the sequence “HRQLLSRDTHGFNVTVTSTIPEDAGLGDQEALIMAAALAFAHDYEDVHTAPIKAKFADVCFQASQAATGRPHVRARFDSALRGLASDLNIVDYSDGSVTHFPHPLNTQSDYAAFVVIPPVGAEQTAEVERRQAFITSAEKAFGTDSLRVLPDARERVIEWLQAVHEVCGTDDVPTITEAANWLEFMENETQAAINAAQAIKSRRHAACFDIVSESQRNLESLYTITTTDAMLSQLCLSRGAVSAR”, the “soluble on expression in E. coli” value is “not soluble”.

Turning to “TGVSSFQEILDKGMVFVNRNKGSGTRDLIEELIGNNESIRKNMKGYLWETNTEAGVARAVEQGRADAGITLEYYAIKLGLKYTHINKENYDILISKEFYDSEYGQAFIKNLKGLKDRIKNYPGYSVPDDI”, the “soluble on expression in E. coli” value is reported as “not soluble”.

On to “MSLKYIIGMDVGTTATKGVLYDINGKAVASVSKGYPLIQTKVGQAEEDPKLIFDAVQEIIFDLTQKIDGKIAAISWSSQMHSLIGLGSDDELLTNSITWADNCAKSIVQDAKNRGFAQQIYRKTGMPMHPMAPIYKLLWLKNKKTEVFSQAQKWIGIKEYIIFRLTGKLVTDTTMAAGTGILNLKTLTWDQELLDILKIKKEQLPKIAQPTKVIFPIKTEYVKKLGIDSDTKIILGASDGYLSTIGVNAIDSDHCALNVGTSGAIRTIVDQPKIDPSASYFCYPADKTHYLLGGPVNNGGIVFNWARQTLFDADETPQDFLDVAQTAPAGSRNLIFLPYLGGERAPIWDANARGSFVGLTRMHQKPEMARAVIEGIIFNLYDAASNLIKNTKKPVAINATGGFLKSDFVRQLCANIFNVPIVTMKEQQSGTLAAMFLARQALGLNQDLSEIGQFAQADKVYFPNPKEAATYQKLFPLYCEIRNALAASYGKFSNINEGHHHHHH”, for which the “soluble on expression in E. coli” value was “soluble”.

On to “MTSTPEFLKQLDYEQLKYCRELCDNRIRAIEAEEKKMAWAVTDGGINYGWFRTEDYMKAVECLVATAAERWEESDKADPSGRGWLDLSIRGSRLPVSEYEALFADGQWG”, for which the “soluble on expression in E. coli” value is listed as “not soluble”.

“MSGTASKGSSSDSASEKTEMRTYKSPKGNVNIPAHPKRIVTDFYAGELLSVGANVVGSGSWSFDNPFLKSKLKNVKDVGDPISVEKVMELQPDLIVVMNEENVDKLKKIAPTVVIPYNTAKNVEDTVSMFGDIAGAKDQAKSFMADFNKKAEAAKKKIAGVIDKDATFGIYENTDKGEFWVFNDNGGRGGQAVYNALGLKAPEKIEQDVIKKGEMKQLSQEVIPEYAADYMFITDYNPKGESKTLDKLENSSIWKNLDAVKHNRVFINDFDSFYPYDPISVSKQVDIITDMLIKRAEENLEHHHHHH”: the “soluble on expression in E. coli” value is given as “soluble”.

On to “MSLRLKWEGTFADYLEIIKENPMVAQSAHSRVFNMIKDSGIEEIDGRKKYSFFDRELFGLEESLERLVEEYFHPAAKRLDVRKRILLLMGPVSGGKSTLVTMLKKGLEAYTLTDNGAVYAIKGCPMHEDPLHLIPHHLRDDFYREYGIRIEGSLSPLNVMRLEEEYGGRIEDVKVERIFFSEDKRTGIGTFSPSDPKSQDIADLTGSIDFSTIAEYGSESDPRAYRFDGELNKANRGMMEFQEMLKCDEKFLWHLLSLTQEGNFKAGRFALISADELIVAHTNETEYRSFISNKKNEALHSRIIVMPVPYNLKVSEEERIYEKMIAESDVADVHIAPHTLKVAAMFSILTRLKEPKRSDIDLVKKMRLYDGESVEGYNSVDVEDMKKEYNDEGMSGIDPRYVINRISSTIIRKNMESINSLDVLRSLKEGLDQHPSISSEDRERYLNFISAARKEYDDIAKKEVQKAFVYSYEESAKTLMDNYLDNVEAYCNKNKLRDPLTGEEMNPDEKLMRSIEEQIGISENAKKAFREEILIRISAYARKGKRFDYNSHERLREAIQKKLFADLKDVVKITTSTKTPDEQQLKKVNEVVARLIDEHGYNSTSANELLKYVGSLLNREGHHHHHH”, for which the “soluble on expression in E. coli” value is “soluble”.

For the sequence “IAPTVWKLADRSKIYMADLESALHYILRIEVGRFPVLEGQRLVALKKFVAVLAKYFPGRPLVQNFLHSVNEWLKRQKRNKIPYSFFKTALDDRKEGAVLAKKVNWIGCQGSEPHFRGFPCSLWVLFHFLTVQAARQNVDHSQEAAKAKEVLPAIRGYVHYFFGCRDCASHFEQMAAASMHRVGSPNAAVLWLWSSHNRVNARLAGAPSEDPQFPKVQWPPRELCSACHNERLDVPVWDVEATLNFLKAHFSPSNIILDFPA”, the “soluble on expression in E. coli” value is on record as “soluble”.

As to “VGPEAYGEASHSHSPASGRYIQQMLDQRCQEIAAELCQSGLRKMCVPSSRIVARNAVGITHQNTLQWRCFDTASLLESNQENNGVNCVDDCGHTIPCPGGVHRQNSNHATRHEILSKLVEEGVQRFCSPYQASANKYCNDKFPGTIARRSKGFGNNVEVAWRCYEKASLLYSVYAECASNCGTTWYCPGGRRGTSTELDKRHYTEEEGIRQAIGSVDSPCSEVEVCLPKDENPPLCLDESGQISRT”, the “soluble on expression in E. coli” value is “soluble”.

Turning to “MAHHHHHHMRCVRVVCQRFVEFVTFCSGVVPPLALLGYPLPGSGCQKTHPTALSLKGARVGDADAGNADTWLSRAIPRNWAAFCVNLQARGVGLVTVGLSYGSPSVVVRQVLGWGCGGNELRLYGFCRSSVLCRVWGVSVPLSAFTPCSVDDSIFSLLRYRIFRACAS”, the “soluble on expression in E. coli” value was “not soluble”.

For the sequence “MSLRKNLEEEQRLIDAKKLSLVIDLDKTLIDTTEVRNRAEVDAIKKLDPAATEDDFFEFNMNQNLLIRYRPHVRQFLASIAPYFDMQIYTLASPAYAHAILSKIDPEDKLFKNRIFSRTAEDFAMIKEAMRNQTDIVNKKNIKKIFPYSDKLVLVLDDSPEVWFCDNNKLFKGLVQIKRYSYFTRQGPNSPPTVNPDYVNDDILIQMRSVLIDVHDMFYKNYDPEESHVIMTLHQRKAQVFEGKTFYFSGLSEDDTMTFTRLAEEFGALVVDSFTPYTTHIIVGEGGTDDQIQKAMEYRGVYIIYLKWLFECFIQYARIEESLYSIQGIPCPTEGHHHHHH”, the “soluble on expression in E. coli” value is “soluble”.
